Results: the supplement of paper PMC9732359
± gives the uncertainty stated by the source.

Experiment: protein stability index of a GFP-peptide fusion (yeast GPS) (PSI 1-4); higher = more stable; sorted into four equal gates, so the index is relative within each strain
Outline: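 Tiled 17-residue yeast protein peptides were fused downstream of GFP in a plasmid that also expresses Cherry, and the pooled library was carried in yeast. Mid-log cultures in leucine-free medium were sorted into four equal gates by GFP/Cherry fluorescence ratio, and plasmids from each gate were PCR-amplified and Illumina-sequenced, with reads assigned to strains by barcodes. The protein stability index for each peptide was each gate's read frequency times its gate number, summed.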

TIVLSLNVKCTRNPDAP [RPC40] showed a protein stability index (doa10∆) of 1.66 ± 0.091, a protein stability index (pdr5∆) of 2.14 ± 0.18 and a protein stability index (san1∆) of 2.91 ± 0.13.
NVKYRAVVFKPFKGEVV [RPB7] showed a protein stability index (doa10∆) of 2.96 ± 0.12, a protein stability index (pdr5∆) of 2.85 ± 0.047 and a protein stability index (san1∆) of 2.43 ± 0.075. The protein stability index (ubr1∆) was 2.86 ± 0.075.
Work on LNQINGLNNDFLFQNIN [GRR1] yielded a protein stability index (doa10∆) of 1.6 ± 0.1, a protein stability index (pdr5∆) of 2.13 ± 0.088 and a protein stability index (san1∆) of 2.01 ± 0.11. It also gave a protein stability index (ubr1∆) of 1.8 ± 0.086.
TFNSKPVRTIVPISTSQ [SIR4] showed a protein stability index (doa10∆) of 2.32 ± 0.037, a protein stability index (pdr5∆) of 2.46 ± 0.037 and a protein stability index (san1∆) of 2.42 ± 0.039. It also gave a protein stability index (ubr1∆) of 2.35 ± 0.028.
KKIFGTGKRLAKKVARR [RPS24A] gave a protein stability index (doa10∆) of 3.52 ± 0.064, a protein stability index (pdr5∆) of 3.34 ± 0.057 and a protein stability index (san1∆) of 3.31 ± 0.039. The protein stability index (ubr1∆) was 3.42 ± 0.039.
IELLSYLVEAPWNDDYP [YML103C/NUP188] showed a protein stability index (doa10∆) of 1.68 ± 0.093, a protein stability index (pdr5∆) of 2.04 ± 0.15 and a protein stability index (ubr1∆) of 2.49 ± 0.17.
IVMVWLKENTYVMERPK [YDL116W/NUP84] gave a protein stability index (doa10∆) of 1.46 ± 0.064, a protein stability index (pdr5∆) of 1.81 ± 0.06 and a protein stability index (san1∆) of 1.43 ± 0.14. It also gave a protein stability index (ubr1∆) of 1.4 ± 0.056.
KALAIFVPVPSLAGFHK [RPS7A] gave a protein stability index (doa10∆) of 2.29 ± 0.051, a protein stability index (pdr5∆) of 1.93 ± 0.04 and a protein stability index (san1∆) of 1.77 ± 0.069. It also gave a protein stability index (ubr1∆) of 1.85 ± 0.039.
In the case of GITAVHVKIRATGGTRT [RPS14B], the protein stability index (doa10∆) is reported as 1.47 ± 0.052, the protein stability index (pdr5∆) is reported as 1.61 ± 0.041 and the protein stability index (san1∆) is reported as 1.57 ± 0.11. It also gave a protein stability index (ubr1∆) of 1.24 ± 0.047.
Work on ESISQTPISNEQTEGEP [SRP68] yielded a protein stability index (doa10∆) of 3.21 ± 0.1, a protein stability index (pdr5∆) of 3.29 ± 0.16 and a protein stability index (san1∆) of 3.16 ± 0.071. It also gave a protein stability index (ubr1∆) of 3.19 ± 0.065.
For LKDIVGQTSRTVTPAPN [ITC1], the protein stability index (doa10∆) was 2.97 ± 0.064, the protein stability index (pdr5∆) was 3 ± 0.041 and the protein stability index (san1∆) was 2.9 ± 0.049. It also gave a protein stability index (ubr1∆) of 2.95 ± 0.044.
Sequence TDKSNSPIGFTNSPQIS [SMC2] has a protein stability index (doa10∆) of 3.02 ± 0.05, a protein stability index (pdr5∆) of 3.16 ± 0.054 and a protein stability index (san1∆) of 3.03 ± 0.043. The protein stability index (ubr1∆) was 3.03 ± 0.043.
In the case of KGHKFNNTKAGRRKTWK [RPL15A], the protein stability index (doa10∆) is reported as 2.79 ± 0.063, the protein stability index (pdr5∆) is reported as 2.93 ± 0.081 and the protein stability index (san1∆) is reported as 2.8 ± 0.093. It also gave a protein stability index (ubr1∆) of 3.1 ± 0.1.
For LKIFKIFCIDLEVFHHF [SRB8], the protein stability index (doa10∆) was 1.57 ± 0.069, the protein stability index (pdr5∆) was 2.23 ± 0.1 and the protein stability index (san1∆) was 1.67 ± 0.1. It also gave a protein stability index (ubr1∆) of 2.53 ± 0.092.
NRLSRIHLYMLTFHTLK [YLR018C/POM34] showed a protein stability index (doa10∆) of 1.42 ± 0.068, a protein stability index (pdr5∆) of 1.58 ± 0.06 and a protein stability index (san1∆) of 1.54 ± 0.12. The protein stability index (ubr1∆) was 1.44 ± 0.047.
In the case of FKKQMQTIMKMGPLSNI [SRP54], the protein stability index (doa10∆) is reported as 2.59 ± 0.11, the protein stability index (pdr5∆) is reported as 3.14 ± 0.074 and the protein stability index (san1∆) is reported as 3.03 ± 0.1. It also gave a protein stability index (ubr1∆) of 2.92 ± 0.072.
In the case of FISELCSIEPIAAKLIN [YML103C/NUP188], the protein stability index (doa10∆) is reported as 1.41 ± 0.033, the protein stability index (pdr5∆) is reported as 1.34 ± 0.044 and the protein stability index (san1∆) is reported as 1.44 ± 0.077. The protein stability index (ubr1∆) was 1.35 ± 0.045.
Work on VQDIIGNGKLSEHFLYL [RPN1] yielded a protein stability index (san1∆) of 3.29 ± 0.26.
With STSLGIPDFRSSEGFYS [SIR2] the protein stability index (doa10∆) was 1.85 ± 0.27, the protein stability index (pdr5∆) was 1.62 ± 0.089 and the protein stability index (ubr1∆) was 3.36 ± 0.14.
PQINILQPIKGESARRF [RPC40] showed a protein stability index (doa10∆) of 2.17 ± 0.096, a protein stability index (pdr5∆) of 2.58 ± 0.1 and a protein stability index (san1∆) of 2.43 ± 0.12. For the same sequence, the protein stability index (ubr1∆) was 2.88 ± 0.12.
In the case of RARGPMQVLTRQPVEGR [RPB2], the protein stability index (doa10∆) is reported as 2.88 ± 0.2, the protein stability index (pdr5∆) is reported as 2.36 ± 0.21 and the protein stability index (san1∆) is reported as 2.79 ± 0.11. It also gave a protein stability index (ubr1∆) of 2.98 ± 0.24.
Sequence TRAGGLGINLVTADTVI [ISW2] has a protein stability index (doa10∆) of 2.19 ± 0.061, a protein stability index (pdr5∆) of 2.13 ± 0.054 and a protein stability index (san1∆) of 2.12 ± 0.1. It also gave a protein stability index (ubr1∆) of 2.89 ± 0.096.
In the case of TEVIIRATRTQDVLGEN [RPS3], the protein stability index (doa10∆) is reported as 3.42 ± 0.26, the protein stability index (pdr5∆) is reported as 2.92 ± 0.12 and the protein stability index (san1∆) is reported as 3.14 ± 0.13. The protein stability index (ubr1∆) was 3.35 ± 0.079.
In the case of IWLRKTSQMDLARDTPS [RRP4], the protein stability index (doa10∆) is reported as 1.61 ± 0.041, the protein stability index (pdr5∆) is reported as 1.98 ± 0.051 and the protein stability index (san1∆) is reported as 1.54 ± 0.097. It also gave a protein stability index (ubr1∆) of 1.5 ± 0.044.
Work on QHHVTDADKLSFNCENF [YML031W/NDC1] yielded a protein stability index (doa10∆) of 2.45 ± 0.065, a protein stability index (pdr5∆) of 2.28 ± 0.053 and a protein stability index (san1∆) of 2.3 ± 0.058. The protein stability index (ubr1∆) was 2.2 ± 0.058.
For VNVLLQSYFSQLKFEGF [BRR2], the protein stability index (doa10∆) was 1.22 ± 0.048, the protein stability index (pdr5∆) was 1.51 ± 0.046 and the protein stability index (san1∆) was 1.28 ± 0.074. The protein stability index (ubr1∆) was 1.48 ± 0.033.
Sequence NAASQQPTPRSASNTAK [GAL11] has a protein stability index (doa10∆) of 2.84 ± 0.082, a protein stability index (pdr5∆) of 2.68 ± 0.055 and a protein stability index (san1∆) of 2.78 ± 0.049. For the same sequence, the protein stability index (ubr1∆) was 2.67 ± 0.039.
In the case of MVMREETIKSLEDPYKY [CSN9], the protein stability index (doa10∆) is reported as 1.62 ± 0.08, the protein stability index (pdr5∆) is reported as 1.66 ± 0.078 and the protein stability index (san1∆) is reported as 1.25 ± 0.2. The protein stability index (ubr1∆) was 1.73 ± 0.054.
With LAEKVEKASRQQRKQKK [RPS24A] the protein stability index (doa10∆) was 3.65 ± 0.27, the protein stability index (pdr5∆) was 3.33 ± 0.11 and the protein stability index (san1∆) was 3.35 ± 0.1. The protein stability index (ubr1∆) was 3.15 ± 0.2.
INKQRVPLSDNAIIEAN [RPL7A] showed a protein stability index (doa10∆) of 2.6 ± 0.058, a protein stability index (pdr5∆) of 2.61 ± 0.064 and a protein stability index (san1∆) of 2.51 ± 0.066. It also gave a protein stability index (ubr1∆) of 2.54 ± 0.053.
In the case of GSSSIIYYDSYIHLAYS [SSN2], the protein stability index (doa10∆) is reported as 2.56 ± 0.11, the protein stability index (pdr5∆) is reported as 2.61 ± 0.12 and the protein stability index (san1∆) is reported as 2.7 ± 0.068. For the same sequence, the protein stability index (ubr1∆) was 2.79 ± 0.28.
Sequence DDNETENPNFWRQFGNR [GRR1] has a protein stability index (doa10∆) of 3.17 ± 0.076, a protein stability index (pdr5∆) of 3.23 ± 0.056 and a protein stability index (san1∆) of 3.31 ± 0.06. For the same sequence, the protein stability index (ubr1∆) was 3.21 ± 0.056.
Sequence IRKDPNNLSNQLETLTG [CSE2] has a protein stability index (doa10∆) of 2.87 ± 0.11, a protein stability index (pdr5∆) of 2.91 ± 0.098 and a protein stability index (san1∆) of 2.68 ± 0.11. The protein stability index (ubr1∆) was 2.77 ± 0.095.
SKNFNVILASSLNEVGT [YML103C/NUP188] gave a protein stability index (doa10∆) of 2.44 ± 0.045, a protein stability index (pdr5∆) of 2.42 ± 0.043 and a protein stability index (san1∆) of 2.56 ± 0.051. For the same sequence, the protein stability index (ubr1∆) was 2.39 ± 0.036.
HANSVVALTGLLIRSKT [YML031W/NDC1] gave a protein stability index (doa10∆) of 1.86 ± 0.04, a protein stability index (pdr5∆) of 2.18 ± 0.046 and a protein stability index (san1∆) of 1.83 ± 0.052. It also gave a protein stability index (ubr1∆) of 2.35 ± 0.033.
With RYVAGVQQRYTQSGGVR [PRE6] the protein stability index (doa10∆) was 2.84 ± 0.23.
In the case of QKTVFDELCKLVTCEGS [SRP54], the protein stability index (doa10∆) is reported as 1.19 ± 0.1, the protein stability index (pdr5∆) is reported as 1.48 ± 0.091 and the protein stability index (san1∆) is reported as 1.25 ± 0.18. For the same sequence, the protein stability index (ubr1∆) was 1.14 ± 0.086.
Sequence ITSGGFLLKAYINVSRG [SRB5] has a protein stability index (doa10∆) of 2.23 ± 0.17, a protein stability index (pdr5∆) of 2.48 ± 0.12 and a protein stability index (san1∆) of 2.32 ± 0.15. The protein stability index (ubr1∆) was 2.53 ± 0.15.
SVQINVAKVDEEGRAIP [RPS21A] gave a protein stability index (doa10∆) of 3.28 ± 0.065, a protein stability index (pdr5∆) of 3.23 ± 0.089 and a protein stability index (san1∆) of 3.31 ± 0.048. It also gave a protein stability index (ubr1∆) of 3.32 ± 0.043.
